Among the data in patent publication US12735488 (dated 2026) are binding result, Kd and koff values, retold here.

Some results are limits rather than exact numbers.

First the molecules themselves.
B1: P1-068748 (antibody, V domains shown)
VH: QVQLVESGGGVVQPGRSLRLSCAASGFTFSHHAMHWVRQAPGKGLEWVAIIWYDGSNDDYADSVKGRFTISRDNSKNTLYLQMNSLRAEDTAVYYCARDSGFYDSYYFDYWGQGTLVTVSS
VL: EIVLTQSPATLSLSPGERATLSCRASQSVSSSYLAWYQQKPGQAPRLLIYDASNRATGIPARFSGSGSGTDFTLTISSLEPEDFATYYCQQYNSYPYTFGQGTKLEIK
B2: P1-068759 (antibody, V domains shown)
VH: EVQLVESGGGLVQPGKSLRLSCAASGFTLEDEAMHWVRQAPGKGLEWVSGIDWNSENIGYADSVKGRFTISRDNAKNSLYLQMNSLRTEDTALYYCAKVPGYSGGWIDAEDDWGQGTMVTVSS
VL: not shown
B3: P1-068761 hIgG1f afucosylated (antibody, V domains shown)
VH: EVQLVESGGGLVQPGKSLRLSCAASGFTLEDEAMHWVRQAPGKGLEWVSGINWNSEEIGYADSVKGRFTISRDNAKNSLYLQMNSLRTEDTALYYCAKVPGYSHGWIDAEDVWGQGTMVTVSS
VL: not shown
B4: P1-068767 hIgG1f afucosylated (antibody, V domains shown)
VH: EVQLVESGGGLVQPGKSLRLSCAASGFTLEDYAMHWVRQAPGKGLEWVSGIDWNSENIGYADSVKGRFTISRDNAKNSLYLQMNSLRTEDTALYYCAKVPGYSGGWIDAEDDWGQGTMVTVSS
VL: not shown
B5: P1-061029 hIgG1f afucosylated (antibody, V domains shown)
VH: EVQLVESGGGLVQPGKSLRLSCAASGFTLDDYAMHWVRQAPGKGLEWVSGINWNSANIGYADSVKGRFTISRDNAKNSLYLQMNSLRTEDTALYYCAKVPGYSGGWIDAFDVWGQGTMVTVSS
VL: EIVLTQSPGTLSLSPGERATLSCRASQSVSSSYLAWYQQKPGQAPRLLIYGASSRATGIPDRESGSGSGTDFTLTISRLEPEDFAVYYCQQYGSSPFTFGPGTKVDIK
B6: P1-068767 hIgG1f (antibody, V domains shown)
VH: EVQLVESGGGLVQPGKSLRLSCAASGFTLEDYAMHWVRQAPGKGLEWVSGIDWNSENIGYADSVKGRFTISRDNAKNSLYLQMNSLRTEDTALYYCAKVPGYSGGWIDAEDDWGQGTMVTVSS
VL: not shown
B7: P1-068744 (antibody, V domains shown)
VH: QVQLVESGGGVVQPGRSLRLSCAASGFTFSEYAMHWVRQAPGKGLEWVAHIWYDGSNKYEADSVKGRFTISRDNSKNTLYLQMNSLRAEDTAVYYCARDSGFYESYYFDEWGQGTLVTVSS
VL: EIVLTQSPATLSLSPGERATLSCRASQSVSSSYLAWYQQKPGQAPRLLIYDASNRATGIPARFSGSGSGTDFTLTISSLEPEDFATYYCQQYNSYPYTFGQGTKLEIK
B8: P1-070872 (P1-068761_H100G) (antibody, V domains shown)
VH: EVQLVESGGGLVQPGKSLRLSCAASGFTLEDEAMHWVRQAPGKGLEWVSGINWNSEEIGYADSVKGRFTISRDNAKNSLYLQMNSLRTEDTALYYCAKVPGYSGGWIDAEDVWGQGTMVTVSS
VL: not shown
B9: P1-068765 (antibody, V domains shown)
VH: EVQLVESGGGLVQPGKSLRLSCAASGFTDEDYAMHWVRQAPGKGLEWVSGINWNSEEIGYADSVKGRFTISRDNAKNSLYLQMNSLRTEDTALYYCAKVPGYSGGWIDAEDDWGQGTMVTVSS
VL: not shown
B10: P1-070870 (P1-068761_E56N) (antibody, V domains shown)
VH: EVQLVESGGGLVQPGKSLRLSCAASGFTLEDEAMHWVRQAPGKGLEWVSGINWNSENIGYADSVKGRFTISRDNAKNSLYLQMNSLRTEDTALYYCAKVPGYSHGWIDAEDVWGQGTMVTVSS
VL: not shown
B11: P1-070890 (P1-068761_E30D_E55A) (antibody, V domains shown)
VH: EVQLVESGGGLVQPGKSLRLSCAASGFTLDDEAMHWVRQAPGKGLEWVSGINWNSAEIGYADSVKGRFTISRDNAKNSLYLQMNSLRTEDTALYYCAKVPGYSHGWIDAEDVWGQGTMVTVSS
VL: not shown
B12: P1-070904 (P1-068767_E30D) (antibody, V domains shown)
VH: EVQLVESGGGLVQPGKSLRLSCAASGFTLDDYAMHWVRQAPGKGLEWVSGIDWNSENIGYADSVKGRFTISRDNAKNSLYLQMNSLRTEDTALYYCAKVPGYSGGWIDAEDDWGQGTMVTVSS
VL: not shown
B13: P1-070922 (P1-068767_E30D_E55A) (antibody, V domains shown)
VH: EVQLVESGGGLVQPGKSLRLSCAASGFTLDDYAMHWVRQAPGKGLEWVSGIDWNSANIGYADSVKGRFTISRDNAKNSLYLQMNSLRTEDTALYYCAKVPGYSGGWIDAEDDWGQGTMVTVSS
VL: not shown
B14: P1-070900 (P1-068761_E56N_H100G) (antibody, V domains shown)
VH: EVQLVESGGGLVQPGKSLRLSCAASGFTLEDEAMHWVRQAPGKGLEWVSGINWNSENIGYADSVKGRFTISRDNAKNSLYLQMNSLRTEDTALYYCAKVPGYSGGWIDAEDVWGQGTMVTVSS
VL: not shown
B15: P1-070864 (P1-068761_E30D) (antibody, V domains shown)
VH: EVQLVESGGGLVQPGKSLRLSCAASGFTLDDEAMHWVRQAPGKGLEWVSGINWNSEEIGYADSVKGRFTISRDNAKNSLYLQMNSLRTEDTALYYCAKVPGYSHGWIDAEDVWGQGTMVTVSS
VL: not shown
B16: P1-068761 (antibody, V domains shown)
VH: EVQLVESGGGLVQPGKSLRLSCAASGFTLEDEAMHWVRQAPGKGLEWVSGINWNSEEIGYADSVKGRFTISRDNAKNSLYLQMNSLRTEDTALYYCAKVPGYSHGWIDAEDVWGQGTMVTVSS
VL: not shown
B17: P1-070878 (P1-068761_E55A_E56N) (antibody, V domains shown)
VH: EVQLVESGGGLVQPGKSLRLSCAASGFTLEDEAMHWVRQAPGKGLEWVSGINWNSANIGYADSVKGRFTISRDNAKNSLYLQMNSLRTEDTALYYCAKVPGYSHGWIDAEDVWGQGTMVTVSS
VL: not shown
B18: P1-068771 (antibody, V domains shown)
VH: EVQLVESGGGLVQPGKSLRLSCAASGFTLEDEAMHWVRQAPGKGLEWVSGINWNSHEIGYADSVKGRFTISRDNAKNSLYLQMNSLRTEDTALYYCAKVPGYSGGWIDAEDDWGQGTMVTVSS
VL: not shown
B19: P1-068775 (antibody, V domains shown)
VH: EVQLVESGGGLVQPGKSLRLSCAASGFTLEDEAMHWVRQAPGKGLEWVSGIDWNSEEIGYADSVKGRFTISRDNAKNSLYLQMNSLRTEDTALYYCAKVPGYSHGWIDAEDDWGQGTMVTVSS
VL: not shown
B20: P1-068769 (antibody, V domains shown)
VH: EVQLVESGGGLVQPGKSLRLSCAASGFTLEDEAMHWVRQAPGKGLEWVSGINWNSDHIGYADSVKGRFTISRDNAKNSLYLQMNSLRTEDTALYYCAKVPGYSGGWIDAEDDWGQGTMVTVSS
VL: not shown
B21: P1-068757 (antibody, V domains shown)
VH: EVQLVESGGGLVQPGKSLRLSCAASGFTLEDEAMHWVRQAPGKGLEWVSGINWNSEEIGYADSVKGRFTISRDNAKNSLYLQMNSLRTEDTALYYCAKVPGYSGGWIDAEDDWGQGTMVTVSS
VL: not shown
B22: P1-068746 (antibody, V domains shown)
VH: QVQLVESGGGVVQPGRSLRLSCAASGFTFSSYAMHWVRQAPGKGLEWVAIIWYDGSNHHYADSVKGRFTISRDNSKNTLYLQMNSLRAEDTAVYYCARDSGFYDSYYFDYWGQGTLVTVSS
VL: EIVLTQSPATLSLSPGERATLSCRASQSVSSSYLAWYQQKPGQAPRLLIYDASNRATGIPARFSGSGSGTDFTLTISSLEPEDFATYYCQQYNSYPYTFGQGTKLEIK
B23: P1-068742 (antibody, V domains shown)
VH: QVQLVESGGGVVQPGRSLRLSCAASGFTFSDYAMHWVRQAPGKGLEWVAIIWYDGSDKDYADSVKGRFTISRDNSKNTLYLQMNSLRAEDTAVYYCARDSGFYEDYYFDYWGQGTLVTVSS
VL: EIVLTQSPATLSLSPGERATLSCRASQSVSSSYLAWYQQKPGQAPRLLIYDASNRATGIPARFSGSGSGTDFTLTISSLEPEDFATYYCQQYNSYPYTFGQGTKLEIK
B24: P1-068773 (antibody, V domains shown)
VH: EVQLVESGGGLVQPGKSLRLSCAASGFTLEDYAMHWVRQAPGKGLEWVSGIDWNSDNIGYADSVKGRFTISRDNAKNSLYLQMNSLRTEDTALYYCAKVPGYSGGWIDAEDDWGQGTMVTVSS
VL: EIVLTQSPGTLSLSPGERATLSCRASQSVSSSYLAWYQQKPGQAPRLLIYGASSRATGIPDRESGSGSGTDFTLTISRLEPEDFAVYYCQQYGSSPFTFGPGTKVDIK

The target in one assay is hVISTA-ECD (human). As to the kind of experiment: SPR pH 7.4, 37C.
Sequence of hVISTA-ECD (human) (chain, as listed by the source): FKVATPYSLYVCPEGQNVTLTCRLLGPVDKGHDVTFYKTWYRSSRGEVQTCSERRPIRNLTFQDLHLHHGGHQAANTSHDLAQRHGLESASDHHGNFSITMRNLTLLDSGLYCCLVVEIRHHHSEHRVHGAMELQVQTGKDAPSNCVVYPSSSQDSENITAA
Turning to B1, the binding result is on record as “no binding”.

The target of a further assay is hVISTA-ECD (human). As to the kind of experiment: SPR pH 6.45, low or no binding.
As to B2, the binding result is “no binding”.

In a further assay the target is hVISTA-ECD (human). As to the kind of experiment: SPR pH 7.4, 37C. The source holds these as a separate data set.
B3: binding was characterised by a dissociation constant (Kd) of 8200 nM.

B4: the Kd was 24000 nM. Same read-out and setting: the figure for B5 is 41 nM; for B6 it is 22000 nM.

For a further assay, the target named is hVISTA-ECD (human). In words: SPR pH 7.4, low or no binding.
Regarding B7, the binding result is recorded as “no binding”. B8: the binding result is “no binding”. On the same count and under the same terms, next, B9: “no binding”; B10: “no binding”. Still for that read-out and setting: the entry for B11 is “no binding”; for B12 it is “no binding”; for B13 it is “no binding”. The same measure, in the same setting: next, B14: “no binding”; B15: “no binding”. On to B16, for which the binding result is reported as “no binding”.

Consider B17, for which the binding result is “no binding”.

Another assay concerns the target hVISTA-ECD (human). In words: SPR pH 7.4, 37C. The source holds these as a separate data set.
In the case of B18, the binding result is listed as “no binding”.

For B19, the binding result is given as “no binding”. On to B20, for which the binding result is “no binding”.

The target of the next assay is hVISTA-ECD (human). In words: SPR pH 6.9, low or no binding.
For the molecule B21, the binding result is recorded as “no binding”.

The target in the next assay is hVISTA-ECD (human). As to the kind of experiment: SPR pH 6.0, 37C.
Consider B22, for which the koff was greater than 0.01 s⁻¹. The same measure, in the same setting: the figure for B23 is greater than 0.01 s⁻¹.

For a further assay, the target named is hVISTA-ECD (human). In words: SPR pH 6.0, 37C. The source holds these as a separate data set.
The molecule B3 gave a Kd of 4.1 nM.

For the molecule B4, the affinity, expressed as Kd, was 7.9 nM. Same read-out and setting: the figure for B5 is 6.9 nM; for B6 it is 8 nM.

Another assay deals with hVISTA-ECD (human). In words: SPR pH 6.0, 37C. This is another data set of the same source.
Regarding B24, binding was characterised by a dissociation constant (Kd) of 9.4 nM.
